# Assay results from patent US11505811B2, “Method for the preparation of 2,4-dihydroxybutyrate” (ADISSEO FRANCE S.A.S., priority 2012, dated 2022).
# Columns and labels:
# Type in all cases: biochemical
# [1] = pyruvate reductase activity, NADH absorption at 340 nm; settings: L. lactis Ll-LdhA mutants
# Experimental: (§1) Enzymatic assays: The reaction mixture contained 60 mM Hepes (pH 7), 50 mM potassium chloride, 5 mM MgCl2, 0.25 mM NADH, (optionally 5 mM fructose-1,6-bisphosphate) (all products from Sigma), and appropriate amounts of purified malate or lactate dehydrogenase or cell extract. Reactions were started by adding appropriate amounts of 2-oxo-4-hydroxybutyrate (OHB), pyruvate, or oxaloacetate (OAA). Enzymatic assays were carried out at 37° C. in 96-well flat bottomed microtiter plates in a final volume of 250 μL. The reactions were followed by the characteristic absorption of NADH at 340 nm (εNADH=6.22 mM^−1 cm^−1) in a microplate reader (BioRad 680XR).
# [2] = OHB reductase activity, NADH absorption at 340 nm; settings: L. lactis Ll-LdhA mutants
# Experimental: as §1
# OHB was synthesized by incubating 125 mM homoserine with snake venom (L)-amino acid oxidase (1.25 U/mL, Sigma) and catalase (4400 U/mL, Sigma) in 100 mM Tris buffer at pH 7.8 for 90 min at 37° C. Subsequently, the reaction mixture was purified on an Amicon™ Ultra centrifugal filter with a cut-off of 10 kDa to eliminate the enzymes (method adapted from Wellner & Lichtenberg, 1971).
# OHB was quantified by mixing 100 μL of the tested solution with 1 mL of a solution containing 1 M sodium arsenate and 1 M boric acid at pH 6.5. The mixture was incubated at room temperature for 30 min and the absorbance at 325 nm was used to quantify OHB. The relation between absorbance and concentration of the ketone was calibrated using pyruvate solutions of known concentrations (method adapted from (Wellner & Lichtenberg, 1971)). The typical OHB yield of the method was 90%.
# [3] = homoserine transaminase activity, coupled dehydrogenase assay; settings: measured at 50 mM homoserine; 2-oxoglutarate as acceptor
# Experimental: (§2) Enzymatic assays: Transaminase activity of several candidate aminotransferases was quantified with 2-oxoglutarate as the amino group acceptor. Transaminase reactions were carried out using homoserine and the preferred amino acid of the enzymes. The reactions were followed by the amino acid-dependent oxidation of NADH in the coupled dehydrogenase reaction.
# (§3) Transaminase Assays (Reaction Scheme)
# (§4) Transaminase: Amino acid+2-oxoglutarate→2-oxo-acid+glutamate
# (§5) Dehydrogenase: 2-oxo-acid+NADH→2-hydroxy-acid+NAD^+
# The reaction mixture contained 60 mM Hepes (pH 7), 50 mM potassium chloride, 5 mM MgCl2, 4 mM 2-oxoglutarate, 0.1 mM pyridoxal-5′-phosphate (PLP), 0.25 mM NADH, (optionally 5 mM fructose-1,6-bisphosphate) (all products from Sigma), 4 Units/mL of auxiliary 2-hydroxyacid dehydrogenase, and appropriate amounts of purified aminotransferase or cell extract. The auxiliary dehydrogenase enzyme was purified PanE from L. lactis in case of the amino acids phenylalanine and leucine (Chambellon, Rijnen, Lorquet, Gitton, van HylckamaVlieg, Wouters, & Yvon, 2009), malate dehydrogenase (Sigma) in case of aspartate, and rabbit muscle (L)-lactate dehydrogenase (Sigma) when homoserine was used as the starting substrate. Reactions were started by adding 50 mM of the amino acid.
# (§6) Enzymatic assays were carried out at 37° C. in 96-well flat bottomed microtiter plates in a final volume of 250 μL. The reactions were followed by the characteristic absorption of NAD(P)H at 340 nm (εNADPH=6.22 mM^−1 cm^−1) in a microplate reader (BioRad 680XR).
# [4] = transaminase activity on preferred amino acid (L), coupled dehydrogenase assay; settings: superscript (L); 50 mM amino acid; 2-oxoglutarate as acceptor
# Experimental: as §2, §3, §4, §5
# (§7) The reaction mixture contained 60 mM Hepes (pH 7), 50 mM potassium chloride, 5 mM MgCl2, 4 mM 2-oxoglutarate, 0.1 mM pyridoxal-5′-phosphate (PLP), 0.25 mM NADH, (optionally 5 mM fructose-1,6-bisphosphate) (all products from Sigma), 4 Units/mL of auxiliary 2-hydroxyacid dehydrogenase, and appropriate amounts of purified aminotransferase or cell extract. […]
# as §6
# [5] = transaminase activity on preferred amino acid (A), coupled dehydrogenase assay; settings: superscript (A); 50 mM amino acid; 2-oxoglutarate as acceptor
# Experimental: as §2, §3, §4, §5, §7, §6
molecule,measurement,setting,value
"Q85N: L. lactis lactate dehydrogenase A, Ll-LdhA, mutant Q85N, SEQ ID No. 30 (protein, listed as Lactococcus lactis) MADKQRKKVILVGDGAVGSSYAFALVNQGIAQELGIVDLFKEKTQGDAEDLSHALAFTSPKKIYSADYSDASDADLVVLTSGAPNKPGETRLDLVEKNLRITKDVVTKIVASGFKGIFLVAANPVDILTYATWKFSGFPKNRVVGSGTSLDTARFRQALAEKVDVDARSIHAYIMGEHGDSEFAVWSHANVAGVKLEQWFQENDYLNEAEIVELFESVRDAAYSIIAKKGATFYGVAVALARITKAILDDEHAVLPVSVFQDGQYGVSDCYLGQPAVVGAEGVVNPIHIPLNDAEMQKMEASGAQLKAIIDEAFAKEEFASAVKN","Max. specific activity, Pyruvate",[1],184 µmol/mg/min
same,"Max. specific activity, OHB",[2],63.9 µmol/mg/min
"Q85NI226V: L. lactis lactate dehydrogenase A, Ll-LdhA, mutant Q85N I226V, SEQ ID No. 32 (protein, listed as Lactococcus lactis) MADKQRKKVILVGDGAVGSSYAFALVNQGIAQELGIVDLFKEKTQGDAEDLSHALAFTSPKKIYSADYSDASDADLVVLTSGAPNKPGETRLDLVEKNLRITKDVVTKIVASGFKGIFLVAANPVDILTYATWKFSGFPKNRVVGSGTSLDTARFRQALAEKVDVDARSIHAYIMGEHGDSEFAVWSHANVAGVKLEQWFQENDYLNEAEIVELFESVRDAAYSIVAKKGATFYGVAVALARITKAILDDEHAVLPVSVFQDGQYGVSDCYLGQPAVVGAEGVVNPIHIPLNDAEMQKMEASGAQLKAIIDEAFAKEEFASAVKN","Max. specific activity, Pyruvate",[1],11.5 µmol/mg/min
same,"Max. specific activity, OHB",[2],4.9 µmol/mg/min
"Ll-AraT: aromatic-amino-acid transaminase from L. lactis, SEQ ID No. 66 (protein, listed as Lactococcus lactis) MDLLKKFNPNLDKIEISLIRQFDQQVSSIPDVIKLTLGEPDFYTPEHVKQAGIVAIENNQSHYTGMAGLLELRQAASEFMNKKYGLSYAAEDEILVTVGVTEAISSVLLSILVAGDEVLIPAPAYPGYEPLITLAGGSLVEIDTRANDFVLTPEMLEQAIVEREGKVKAVILNYPANPTGVTYNRGQIKALAEVLKKHEVFVIADEVYSELNYTDQPHVSIAEYAPEQTIVLNGLSKSHAMTGWRIGLIFAARELVAQIIKTHQYLVTSASTQSQFAAIEALKNGAYDALPMKKEYLKRRDYIIEKMSDLGFKIIEPDGAFYIFAKIPADLEQDSFKFAVDFAKENAVAIIPGIAFGQYGEGFVRLSYAASMDMIEQAMARLTDYVTKKRG",Max. specific activity on Homoserine,[3],0.109 μmol/(min mgprot)
"Sc-ARO8: aromatic-amino-acid transaminase from Saccharomyces cerevisiae, SEQ ID No. 70 (protein, listed as Saccharomyces cerevisiae) MTLPESKDFSYLFSDETNARKPSPLKTCIHLFQDPNIIFLGGGLPLKDYFPWDNLSVDSPKPPFPQGIGAPIDEQNCIKYTVNKDYADKSANPSNDIPLSRALQYGFSAGQPELLNFIRDHTKIIHDLKYKDWDVLATAGNTNAWESTLRVFCNRGDVILVEAHSFSSSLASAEAQGVITFPVPIDADGIIPEKLAKVMENWTPGAPKPKLLYTIPTGQNPTGTSIADHRKEAIYKIAQKYDFLIVEDEPYYFLQMNPYIKDLKEREKAQSSPKQDHDEFLKSLANTFLSLDTEGRVIRMDSFSKVLAPGTRLGWITGSSKILKPYLSLHEMTIQAPAGFTQVLVNATLSRWGQKGYLDWLLGLRHEYTLKRDCAIDALYKYLPQSDAFVINPPIAGMFFTVNIDASVHPEFKTKYNSDPYQLEQSLYHKVVERGVLVVPGSWFKSEGETEPPQPAESKEVSNPNIIFFRGTYAAVSPEKLTEGLKRLGDTLYEEFGISK",Max. specific activity on Homoserine,[3],0.076 μmol/(min mgprot)
"Ec-IlvE: branched-chain-amino-acid transaminase from Escherichia coli, SEQ ID No. 60 (protein, listed as Escherichia coli) MTTKKADYIWFNGEMVRWEDAKVHVMSHALHYGTSVFEGIRCYDSHKGPVVFRHREHMQRLHDSAKIYRFPVSQSIDELMEACRDVIRKNNLTSAYIRPLIFVGDVGMGVNPPAGYSTDVIIAAFPWGAYLGAEALEQGIDAMVSSWNRAAPNTIPTAAKAGGNYLSSLLVGSEARRHGYQEGIALDVNGYISEGAGENLFEVKDGVLFTPPFTSSALPGITRDAIIKLAKELGIEVREQVLSRESLYLADEVFMSGTAAEITPVRSVDGIQVGEGRCGPVTKRIQQAFFGLFTGETEDKWGWLDQVNQ",Max. specific activity on Homoserine,[3],0.077 μmol/(min mgprot)
same,Max. specific activity on preferred amino acid (L),[4],10.3^(L) μmol/(min mgprot)
"Ll-BcaT: branched-chain-amino-acid transaminase from Lactococcus lactis, SEQ ID No. 68 (protein, listed as Lactococcus lactis) MAINLDWENLGFSYRNLPFRYIARFKDGKWSAGELTGDNQLHISESSPALHYGQQGFEGLKAYRTKDGSIQLFRPDQNAARLQNTARRLCMAEVPTEMFIDAVKQVVKANEDFVPPYGTGATLYLRPLLIGVGDVIGVKPADEYIFTVFAMPVGSYFKGGLAPSKFVISRDYDRAAPLGTGGAKVGGNYAASLQAEVGAKASGYADAIYLDPSTHTKIEEVGAANFFGITADNEFITPLSPSILPSITKYSLLYLAEHRLGLKAIEGEVYAKDLGKFVEAGACGTAAIISPIGRIDDGEDSYIFHSETEVGPTVKRLYDELVGIQFGDVEAPEGWIVKVD",Max. specific activity on Homoserine,[3],0.028 μmol/(min mgprot)
same,Max. specific activity on preferred amino acid (L),[4],30.39^(L) μmol/(min mgprot)
"Ec-TyrB: aromatic-amino-acid transaminase from E. coli, SEQ ID No. 62 (protein, listed as Escherichia coli) VFQKVDAYAGDPILTLMERFKEDPRSDKVNLSIGLYYNEDGIIPQLQAVAEAEARLNAQPHGASLYLPMEGLNCYRHAIAPLLFGADHPVLKQQRVATIQTLGGSGALKVGADFLKRYFPESGVWVSDPTWENHVAIFAGAGFEVSTYPWYDEATNGVRFNDLLATLKTLPARSIVLLHPCCHNPTGADLTNDQWDAVIEILKARELIPFLDIAYQGFGAGMEEDAYAIRAIASAGLPALVSNSFSKIFSLYGERVGGLSVMCEDAEAAGRVLGQLKATVRRNYSSPPNFGAQVVAAVLNDEALKASWLAEVEEMRTRILAMRQELVKVLSTEMPERNFDYLLNQRGMFSYTGLSAAQVDRLREEFGVYLIASGRMCVAGLNTANVQRVAKAFAAVM",Max. specific activity on Homoserine,[3],0.057 μmol/(min mgprot)
"Ec-AspC: aspartate transaminase from E. coli, SEQ ID No. 64 (protein, listed as Escherichia coli) MFENITAAPADPILGLADLFRADERPGKINLGIGVYKDETGKTPVLTSVKKAEQYLLENETTKNYLGIDGIPEFGRCTQELLFGKGSALINDKRARTAQTPGGTGALRVAADFLAKNTSVKRVWVSNPSWPNHKSVFNSAGLEVREYAYYDAENHTLDFDALINSLNEAQAGDVVLFHGCCHNPTGIDPTLEQWQTLAQLSVEKGWLPLFDFAYQGFARGLEEDAEGLRAFAAMHKELIVASSYSKNFGLYNERVGACTLVAADSETVDRAFSQMKAAIRANYSNPPAHGASVVATILSNDALRAIWEQELTDMRQRIQRMRQLFVNTLQEKGANRDFSFIIKQNGMFSFSGLTKEQVLRLREEFGVYAVASGRVNVAGMTPDNMAPLCEAIVAVL",Max. specific activity on Homoserine,[3],0.082 μmol/(min mgprot)
same,Max. specific activity on preferred amino acid (A),[5],74.031^(A) μmol/(min mgprot)
